Measured values from PMC7005798 (2020).

Target: C3b (human, UniProt P01024 23-667; P01024 749-1663)
Test: SPR

Sequence of C3b (P01024 23-667, chain 1 of 2): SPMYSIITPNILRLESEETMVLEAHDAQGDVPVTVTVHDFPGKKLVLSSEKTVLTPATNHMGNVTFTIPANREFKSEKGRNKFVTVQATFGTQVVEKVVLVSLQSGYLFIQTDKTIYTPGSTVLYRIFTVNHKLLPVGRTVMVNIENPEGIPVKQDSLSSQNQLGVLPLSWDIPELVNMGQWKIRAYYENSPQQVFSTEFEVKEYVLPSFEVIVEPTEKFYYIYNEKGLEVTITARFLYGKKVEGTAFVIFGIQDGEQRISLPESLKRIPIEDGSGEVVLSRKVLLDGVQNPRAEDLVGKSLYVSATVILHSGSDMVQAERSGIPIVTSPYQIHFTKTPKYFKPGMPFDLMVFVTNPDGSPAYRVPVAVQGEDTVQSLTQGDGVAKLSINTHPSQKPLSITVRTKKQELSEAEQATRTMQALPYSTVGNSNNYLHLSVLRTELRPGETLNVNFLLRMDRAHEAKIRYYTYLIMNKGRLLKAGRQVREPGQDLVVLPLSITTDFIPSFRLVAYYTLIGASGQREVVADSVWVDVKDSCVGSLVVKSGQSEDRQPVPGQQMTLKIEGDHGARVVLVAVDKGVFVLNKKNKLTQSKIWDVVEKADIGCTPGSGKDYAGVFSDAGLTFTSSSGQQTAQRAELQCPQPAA
Sequence of C3b (P01024 749-1663, chain 2 of 2): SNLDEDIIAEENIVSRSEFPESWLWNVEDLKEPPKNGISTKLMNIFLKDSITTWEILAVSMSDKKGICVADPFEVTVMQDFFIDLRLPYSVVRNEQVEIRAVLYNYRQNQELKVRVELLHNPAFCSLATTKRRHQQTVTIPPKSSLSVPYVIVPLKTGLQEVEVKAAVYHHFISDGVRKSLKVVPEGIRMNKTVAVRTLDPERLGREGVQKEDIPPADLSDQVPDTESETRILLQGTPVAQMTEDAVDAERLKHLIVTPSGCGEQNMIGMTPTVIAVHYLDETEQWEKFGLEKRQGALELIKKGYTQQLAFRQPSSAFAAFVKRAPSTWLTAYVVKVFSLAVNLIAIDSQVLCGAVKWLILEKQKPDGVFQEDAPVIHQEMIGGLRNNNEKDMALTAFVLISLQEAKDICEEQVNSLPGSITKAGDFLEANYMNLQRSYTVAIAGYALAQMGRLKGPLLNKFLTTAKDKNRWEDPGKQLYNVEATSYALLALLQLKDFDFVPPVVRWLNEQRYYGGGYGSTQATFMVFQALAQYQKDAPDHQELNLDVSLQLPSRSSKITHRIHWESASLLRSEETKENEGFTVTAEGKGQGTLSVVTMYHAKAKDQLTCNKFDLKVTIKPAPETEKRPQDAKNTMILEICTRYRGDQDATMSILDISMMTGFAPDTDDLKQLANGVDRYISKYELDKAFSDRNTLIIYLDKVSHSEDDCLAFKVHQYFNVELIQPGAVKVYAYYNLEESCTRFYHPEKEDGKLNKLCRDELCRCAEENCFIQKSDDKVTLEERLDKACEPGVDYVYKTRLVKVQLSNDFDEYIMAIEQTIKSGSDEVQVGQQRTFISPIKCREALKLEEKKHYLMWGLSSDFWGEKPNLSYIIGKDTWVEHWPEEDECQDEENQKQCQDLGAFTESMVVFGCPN

B1: Recombinant Factor H-Related Protein 4 (FHR-4), FHR-4B variant (natural protein)
chain: EVKPCDFPEIQHGGLYYKSLRRLYFPAAAGQSYSYYCDQNFVTPSGSYWDYIHCTQDGWSPTVPCLRTCSKSDIEIENGFISESSSIYILNKEIQYKCKPGYATADGNSSGSITCLQNGWSAQPICIKFCDMPVFENSRAKSNGMRFKLHDTLDYECYDGYEISYGNTTGSIVCGEDGWSHFPTCYNSSEKCGPPPPISNGDTTSFLLKVYVPQSRVEYQCQSYYELQGSNYVTCSNGEWSEPPRCIHPCIITEENMNKNNIQLKGKSDIKYYAKTGDTIEFMCKLGYNANTSVLSFQAVCREGIVEYPRCE
With B1 the Kd was 1100 nM.
